PMC12201654, “Circovirus Rep evades immune restriction by disrupting cGAS oligomerization and phase separation” (PLOS Pathogens, 2025)

Legend:
[1] = molecular target: T1, pcGAS full length (pig (porcine), UniProt I3LM39 1-495); experiment: MST; Pull-down: IP lysis buffer 4 h at 4 C (lysates) or NP-40 buffer 6 h at 4 C (recombinant), biotin-HSV60 40 ug/mL; MST buffer not given; phase separation 50-300 mM NaCl; settings: protein: recombinant; label: Cy5; blunt
T1 sequence: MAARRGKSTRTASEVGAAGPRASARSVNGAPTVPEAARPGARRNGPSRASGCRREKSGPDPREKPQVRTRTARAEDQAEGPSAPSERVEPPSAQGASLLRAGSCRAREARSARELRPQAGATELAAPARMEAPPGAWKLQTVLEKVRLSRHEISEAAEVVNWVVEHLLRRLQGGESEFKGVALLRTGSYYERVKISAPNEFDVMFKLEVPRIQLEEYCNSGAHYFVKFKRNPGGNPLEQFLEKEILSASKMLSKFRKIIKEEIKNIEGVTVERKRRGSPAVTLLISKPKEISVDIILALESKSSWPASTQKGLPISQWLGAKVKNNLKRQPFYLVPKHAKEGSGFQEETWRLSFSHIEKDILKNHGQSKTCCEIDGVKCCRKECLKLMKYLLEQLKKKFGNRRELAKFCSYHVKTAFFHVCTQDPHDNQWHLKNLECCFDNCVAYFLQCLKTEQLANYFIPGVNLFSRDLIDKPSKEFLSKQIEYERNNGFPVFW

[2] = molecular target: T2, PCV2a Rep (Porcine circovirus 2a, UniProt Q77Q74 1-314); experiment: as above; settings: protein: recombinant; tags: C-terminal Myc; His6-SUMO removed per Methods; label: Cy5; blunt
T2 sequence: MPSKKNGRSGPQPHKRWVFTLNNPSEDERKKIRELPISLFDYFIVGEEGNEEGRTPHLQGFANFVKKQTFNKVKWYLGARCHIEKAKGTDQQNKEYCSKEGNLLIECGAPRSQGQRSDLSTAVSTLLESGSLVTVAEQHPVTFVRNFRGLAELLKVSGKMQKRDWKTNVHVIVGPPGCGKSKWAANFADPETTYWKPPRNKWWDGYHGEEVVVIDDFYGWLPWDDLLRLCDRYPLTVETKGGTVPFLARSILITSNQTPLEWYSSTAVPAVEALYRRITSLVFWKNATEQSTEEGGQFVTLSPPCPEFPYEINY

[3] = molecular target: SUMO-PCV3 Rep-Myc (Porcine circovirus 3, UniProt A0ACM8RHE8 1-296); experiment: pull-down; Pull-down: IP lysis buffer 4 h at 4 C (lysates) or NP-40 buffer 6 h at 4 C (recombinant), biotin-HSV60 40 ug/mL; MST buffer not given; phase separation 50-300 mM NaCl; settings: protein: recombinant; tags: His6-SUMO, C-terminal Myc; label: 5'-biotin; blunt
[4] = molecular target: T3, SUMO-PCV4 Rep-Myc (Porcine circovirus 4, UniProt A0A7M4CFI7 1-296); experiment: as above; settings: protein: recombinant; tags: His6-SUMO, C-terminal Myc; label: 5'-biotin; blunt
T3 sequence: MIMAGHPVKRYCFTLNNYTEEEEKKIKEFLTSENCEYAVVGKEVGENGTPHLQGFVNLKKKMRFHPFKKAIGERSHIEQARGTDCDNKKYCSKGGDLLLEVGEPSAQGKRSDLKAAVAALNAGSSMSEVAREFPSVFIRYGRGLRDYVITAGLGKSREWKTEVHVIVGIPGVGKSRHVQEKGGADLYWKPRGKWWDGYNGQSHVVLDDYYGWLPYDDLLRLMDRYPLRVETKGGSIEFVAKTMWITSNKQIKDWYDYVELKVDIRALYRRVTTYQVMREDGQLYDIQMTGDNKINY

[5] = molecular target: the molecule itself; experiment: cross-linking; recombinant pcGAS (5 ug), bound to ISD45 dsDNA, alone or with recombinant Rep proteins (5, 10, 15 ug) in cGAMP synthesis buffer (20 mM HEPES pH 7.5, 5 mM MgCl2, 2 mM ATP, 2 mM GTP), 25°C 15 min, then DSS 0.5 mM for 10 min; non-reducing loading buffer, immunoblot

B1: Cy5-HSV60 (dsDNA)
DNA 1: TAAGACACGATGCGATAAAATCTGTTTGTAAAATTTATTAAGGGTACAAATTGCCCTAGC
DNA 2: GCTAGGGCAATTTGTACCCTTAATAAATTTTACAAACAGATTTTATCGCATCGTGTCTTA
[1]
  Kd: 0.68 µM
[2]
  Kd: 11.1 µM

B2: biotin-HSV60 (dsDNA)
DNA 1: B1 DNA 1
DNA 2: B1 DNA 2
[3]
  binding result: binds
[4]
  binding result: binds

B3: porcine cGAS (pcGAS), recombinant full-length protein (natural protein)
chain: T1 sequence
notes: cyclic GMP-AMP synthase (cGAS), porcine, full length; identifier not given; also called porcine cyclic GMP-AMP synthase; pcGAS full length; source: recombinant protein, stored in our laboratory
[5]
  binding result: binds
